Measured values: article PMC12059179, “A short intrinsically disordered region at KtrB’s N-terminus facilitates allosteric regulation of K^+ channel KtrAB” (Nature Communications, 2025)

B1: KtrB from Vibrio alginolyticus with deletion of residues 2-19 (natural protein)
chain: MAKGGEPRIILLSFLGVLLPSAVLLTLPVFSVSGLSITDALFTATSAISVTGLGVVDTGQHFTLAGKILLMCLMQIGGLGQMTLSAVLLYMFGVRLSLRQQALAKEALGQERQVNLRRLVKKIVTFALVAEAIGFVFLSYRWVPEMGWQTGMFYALFHSISAFNNAGFALFSDSMMSFVNDPLVSFTLAGLFIFGGLGFTVIGDVWRHWRKGFHFLHIHTKIMLIATPLLLLVGTVLFWLLERHNPNTMGSLTTGGQWLAAFFQSASARTAGFNSVDLTQFTQPALLIMIVLMLIGAGSTSTGGGIKVSTFAVAFMATWTFLRQKKHVVMFKRTVNWPTVTKSLAIIVVSGAILTTAMFLLMLTEKASFDKVMFETISAFATVGLTAGLTAELSEPGKYIMIVVMIIGRIGPLTLAYMLARPEPTLIKYPEDTVLTG
notes: KtrB, Vibrio alginolyticus, with the N-terminal residues 2-19 deleted; Two KtrB dimers stand in the solved assembly: KtrBΔ2-19_(4)A8, deposited as KtrB2A8B2 with the N-terminal KtrB deletion; also called KtrBΔ2-19; KtrAB_(Δ2-19); source: purified as a complex with KtrA (SEC)
B2: KtrB from Vibrio alginolyticus, tagless, full length (natural protein, UniProt O87953 1-455, looked up)
chain: MTQFHQRGVFYVPDGKRDKAKGGEPRIILLSFLGVLLPSAVLLTLPVFSVSGLSITDALFTATSAISVTGLGVVDTGQHFTLAGKILLMCLMQIGGLGQMTLSAVLLYMFGVRLSLRQQALAKEALGQERQVNLRRLVKKIVTFALVAEAIGFVFLSYRWVPEMGWQTGMFYALFHSISAFNNAGFALFSDSMMSFVNDPLVSFTLAGLFIFGGLGFTVIGDVWRHWRKGFHFLHIHTKIMLIATPLLLLVGTVLFWLLERHNPNTMGSLTTGGQWLAAFFQSASARTAGFNSVDLTQFTQPALLIMIVLMLIGAGSTSTGGGIKVSTFAVAFMATWTFLRQKKHVVMFKRTVNWPTVTKSLAIIVVSGAILTTAMFLLMLTEKASFDKVMFETISAFATVGLTAGLTAELSEPGKYIMIVVMIIGRIGPLTLAYMLARPEPTLIKYPEDTVLTG
notes: KtrB, transmembrane pore-forming subunit of the K+ channel KtrAB, Vibrio alginolyticus; C-terminal residue G455; Homodimer; It was in DDM for the deposited structures and in MSP2N2 nanodiscs with E. coli polar lipids for one cryo-EM data set; also called VaKtrB; KtrB dimer; source: E. coli LB2003, membranes mixed with KtrA-containing cytosol, solubilised in DDM, co-purified with KtrA (Ni-NTA, …)

How the values were obtained:
[1] = biological target: T1, KtrAB (KtrB2A8B2 complex) (Vibrio alginolyticus, UniProt O87952); assay: cryo-EM structure, […] Å; type: binding; conditions: ADP found despite ATP agarose and ATP in the sample; Mg2+ at alpha-phosphate
T1 construct: gene ktrA; nonphysiological assembly with a second KtrB dimer on the KtrA octamer; full-length, in DDM; wild type purified via ATP agarose; KtrA C-terminal His tag removed by 3C protease; with Ktr system potassium uptake protein B
T1 sequence (O87952 1-220): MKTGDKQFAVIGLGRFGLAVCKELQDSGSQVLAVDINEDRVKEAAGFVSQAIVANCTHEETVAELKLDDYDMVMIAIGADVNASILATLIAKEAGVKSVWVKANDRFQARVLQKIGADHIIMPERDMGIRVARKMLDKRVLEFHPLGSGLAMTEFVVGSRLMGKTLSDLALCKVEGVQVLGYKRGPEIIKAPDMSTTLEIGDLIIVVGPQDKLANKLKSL
T1 sequence (O87953 1-455 partner): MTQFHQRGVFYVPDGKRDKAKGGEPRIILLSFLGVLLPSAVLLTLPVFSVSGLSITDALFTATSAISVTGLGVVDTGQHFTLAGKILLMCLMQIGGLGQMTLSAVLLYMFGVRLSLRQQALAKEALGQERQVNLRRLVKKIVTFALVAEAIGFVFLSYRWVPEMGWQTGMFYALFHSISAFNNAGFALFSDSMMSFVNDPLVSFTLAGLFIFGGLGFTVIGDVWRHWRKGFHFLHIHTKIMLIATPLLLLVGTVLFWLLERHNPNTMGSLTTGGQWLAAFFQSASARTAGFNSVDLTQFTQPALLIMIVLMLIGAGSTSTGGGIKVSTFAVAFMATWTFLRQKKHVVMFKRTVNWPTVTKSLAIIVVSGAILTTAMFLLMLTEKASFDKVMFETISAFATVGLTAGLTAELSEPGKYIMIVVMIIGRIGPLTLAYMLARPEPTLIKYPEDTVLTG

KtrA (VaKtrA, KtrAC3H) [2] = biological target: T2, KtrA (VaKtrA, KtrAC3H) (Vibrio alginolyticus, UniProt O87952); assay: differential scanning fluorimetry (SYPRO Orange); type: binding; conditions: pH 7.5, 20 mM Tris-HCl, 140 mM NaCl, 60 mM KCl; 5 µM KtrA; melting temperature with ligand, not a shift
T2 construct: full-length cytosolic RCK subunit, C-terminal 3C-cleavable His tag (KtrAC3H), eluted with imidazole (tag kept), expressed in E. coli C43(DE3)ΔacrAB; homooctameric ring
T2 sequence (O87952 1-220): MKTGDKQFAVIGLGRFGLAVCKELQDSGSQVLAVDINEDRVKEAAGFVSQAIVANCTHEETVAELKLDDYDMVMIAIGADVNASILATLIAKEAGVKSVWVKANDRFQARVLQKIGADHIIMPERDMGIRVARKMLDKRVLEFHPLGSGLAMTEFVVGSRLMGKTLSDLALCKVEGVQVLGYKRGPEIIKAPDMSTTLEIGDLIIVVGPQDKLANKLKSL

[3] = biological target: T3, KtrAB (native KtrB2A8 complex) (Vibrio alginolyticus, UniProt O87952); assay: cryo-EM structure, […] Å; type: binding; conditions: co-purified ADP, sample prepared with ATP and MgCl2
T3 construct: gene ktrA; full-length complex in DDM; tagless KtrB membranes (E. coli LB2003) mixed with KtrA (C-terminal His tag, removed by 3C protease); KtrA octamer with one KtrB dimer; with Ktr system potassium uptake protein B
T3 sequence (O87952 1-220): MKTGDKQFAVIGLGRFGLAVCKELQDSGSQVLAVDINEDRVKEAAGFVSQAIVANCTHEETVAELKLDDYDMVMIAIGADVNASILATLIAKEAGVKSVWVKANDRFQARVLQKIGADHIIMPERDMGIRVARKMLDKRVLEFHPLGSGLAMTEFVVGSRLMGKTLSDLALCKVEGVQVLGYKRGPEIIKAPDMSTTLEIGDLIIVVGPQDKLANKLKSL
T3 sequence (O87953 1-455 partner): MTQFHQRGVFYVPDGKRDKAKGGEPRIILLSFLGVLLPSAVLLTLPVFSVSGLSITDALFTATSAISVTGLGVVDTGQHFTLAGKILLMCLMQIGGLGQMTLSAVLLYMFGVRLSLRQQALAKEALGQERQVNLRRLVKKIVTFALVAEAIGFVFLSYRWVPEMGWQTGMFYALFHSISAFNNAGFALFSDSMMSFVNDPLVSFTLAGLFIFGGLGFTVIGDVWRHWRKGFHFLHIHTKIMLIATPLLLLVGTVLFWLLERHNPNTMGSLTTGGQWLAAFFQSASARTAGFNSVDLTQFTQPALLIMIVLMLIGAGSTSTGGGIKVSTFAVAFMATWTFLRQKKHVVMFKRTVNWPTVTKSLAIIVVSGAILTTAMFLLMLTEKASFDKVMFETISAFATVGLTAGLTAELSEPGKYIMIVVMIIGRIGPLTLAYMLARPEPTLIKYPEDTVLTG

KtrA (VaKtrA, KtrAC3H) [4] = biological target: T2, KtrA (VaKtrA, KtrAC3H); assay: isothermal titration calorimetry; type: binding; conditions: pH 8, 24 °C, 20 mM HEPES, 140 mM NaCl, 60 mM KCl; one-site fit; no KtrB
[5] = biological target: the molecule itself; assay: cryo-EM structure; KtrAB with KtrB Δ2-19, KtrBΔ2-19_(4)A8 assembly, supplemented with 1 mM ATP, 3.6 Å, 58,000 particles
[6] = biological target: the molecule itself; assay: cryo-EM structure; natively assembled KtrB2A8 complex in DDM, 2.8 Å, C2 symmetry; sample supplemented with 1 mM ATP and 2 mM MgCl2, ADP found bound
[7] = biological target: B2; assay: as above; conditions: both partners purified
[8] = biological target: B1; assay: cryo-EM structure; KtrAB with KtrB Δ2-19, KtrBΔ2-19_(4)A8 assembly, supplemented with 1 mM ATP, 3.6 Å, 58,000 particles; conditions: both partners purified
[9] = biological target: B2; assay: cryo-EM structure; nonphysiological KtrB2A8B2 assembly purified via ATP agarose, in DDM, 2.5 Å, D2 symmetry; 1 mM ATP and 2 mM MgCl2, ADP found bound; conditions: both partners purified
[10] = biological target: the molecule itself; assay: as above

**Q.** What does the source list for `Nc1ncnc2c1ncn2[C@@H]1O[C@H](COP(=O)(O)OP(=O)(O)O)[C@@H](O)[C@H]1O` [ADP]?
**A.** cryo-EM structure, 2.5 Å [1]: ADP molecules bound to the N lobes of each of the eight KtrA subunits; Tm (KtrA (VaKtrA, KtrAC3H) [2]): 67 °C; cryo-EM structure, 2.8 Å [3]: KtrA ring contains non-protein densities corresponding to ADP molecules; Kd (KtrA (VaKtrA, KtrAC3H) [4]): 3400 nM

**Q.** With `Nc1ncnc2c1ncn2[C@@H]1O[C@H](COP(=O)(O)OP(=O)(O)OP(=O)(O)O)[C@@H](O)[C@H]1O` [ATP] as the molecule, how does the Tm (KtrA (VaKtrA, KtrAC3H) [2]) read?
**A.** 55 °C

**Q.** What about the Kd (KtrA (VaKtrA, KtrAC3H) [4]) of the same molecule?
**A.** 2400 nM

**Q.** Does B1 bind [5]?
**A.** binds

**Q.** With B2 as the molecule, how does the “stoichiometry N” value [6] read?
**A.** 2

B3: KtrA from Vibrio alginolyticus, His tag cleaved off with 3C protease (natively assembled KtrB2A8 preparation) (natural protein, UniProt O87952 1-220, looked up)
chain: MKTGDKQFAVIGLGRFGLAVCKELQDSGSQVLAVDINEDRVKEAAGFVSQAIVANCTHEETVAELKLDDYDMVMIAIGADVNASILATLIAKEAGVKSVWVKANDRFQARVLQKIGADHIIMPERDMGIRVARKMLDKRVLEFHPLGSGLAMTEFVVGSRLMGKTLSDLALCKVEGVQVLGYKRGPEIIKAPDMSTTLEIGDLIIVVGPQDKLANKLKSL
notes: KtrA, cytosolic RCK subunit of the K+ channel KtrAB, Vibrio alginolyticus; full-length KtrAB; Residues of the 3C site may remain at the C-terminus after cleavage; also called VaKtrA; KtrAC3H; source: E. coli C43(DE3)ΔacrAB; not shown: His tag, C-terminal, cleaved
**Q.** Does B3 bind [7]?
**A.** binds

**Q.** And the “stoichiometry N” value [6]?
**A.** 8

B4: KtrA from Vibrio alginolyticus with C-terminal His tag (KtrAC3H), eluted with imidazole (natural protein, UniProt O87952 1-220, looked up)
chain: MKTGDKQFAVIGLGRFGLAVCKELQDSGSQVLAVDINEDRVKEAAGFVSQAIVANCTHEETVAELKLDDYDMVMIAIGADVNASILATLIAKEAGVKSVWVKANDRFQARVLQKIGADHIIMPERDMGIRVARKMLDKRVLEFHPLGSGLAMTEFVVGSRLMGKTLSDLALCKVEGVQVLGYKRGPEIIKAPDMSTTLEIGDLIIVVGPQDKLANKLKSL
notes: KtrA, cytosolic RCK subunit of the K+ channel KtrAB, Vibrio alginolyticus; full-length KtrAB; Same construct as m1; Here no 3C cleavage is reported: imidazole elution for isolated KtrA, and imidazole removal is mentioned before the ATP agarose step; also called VaKtrA; isolated KtrA ring; source: E. coli C43(DE3)ΔacrAB, purified (Ni-NTA eluted with imidazole, SEC); for KtrB2A8B2 also ATP agarose
**Q.** Does B4 bind [8]?
**A.** binds

**Q.** Does B4 bind [9]?
**A.** binds

**Q.** What about the “stoichiometry N” value [10] of the same molecule?
**A.** 8
